Data: PMC3215742

Experiments:
[1] = biological target: Renilla luciferase (RLuc)-fused tetherin (human) (UniProt Q10589)
[2] = biological target: Renilla luciferase (RLuc)-fused tetherin (human) (UniProt Q10589); experiment: FRET or BRET; BRET in HEK293T cells cotransfected with RLuc-tetherin and Vpu-eYFP (or eYFP alone); media with 10 µM BIT225 or DMSO from 6 h after transfection; cells collected 48 h post-transfection, washed in PBS; coelenterazine H 5 µM; Synergy 4 plate reader

UniProt Q10589, sequence (Q10589 1-161): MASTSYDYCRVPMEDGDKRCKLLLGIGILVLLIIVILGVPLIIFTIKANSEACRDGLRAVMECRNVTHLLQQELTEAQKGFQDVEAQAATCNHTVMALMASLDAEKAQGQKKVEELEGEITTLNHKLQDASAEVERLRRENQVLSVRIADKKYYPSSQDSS

Substance: enhanced yellow fluorescent protein (eYFP)-fused Vpu (from UniProt P05919 1-82) (natural protein)
- tetherin cell surface expression (flow cytometry) in wt infected CEM-SS cells compared to uninfected populations; not affected by 10 µM BIT225 [1]: 75%
- tetherin cell surface expression (flow cytometry) in wt infected SupT1-tetherin^pos cells compared to uninfected controls; not affected by 10 µM BIT225 [1]: 70%
- BRET signal (DMSO, without BIT225) [2]: 52
- BRET signal (with 10 µM BIT225) [2]: 51
